Experimental data: patent US11066455B2, “Tmem100 peptides and variants thereof and their use in treating or preventing diseases or conditions” (The Johns Hopkins University, priority 2014, dated 2021)
“Also recorded” adds a separate entry of the source. One block for each molecule: values may come before it.

B1: TRPV1 (endogenous, mouse DRG) (receptor, UniProt Q704Y3 1-839, looked up)
chain: MEKWASLDSDESEPPAQENSCPDPPDRDPNSKPPPAKPHIFATRSRTRLFGKGDSEEASPMDCPYEEGGLASCPIITVSSVVTLQRSVDGPTCLRQTSQDSVSTGVETPPRLYDRRSIFDAVAQSNCQELESLLSFLQKSKKRLTDSEFKDPETGKTCLLKAMLNLHNGQNDTIALLLDIARKTDSLKQFVNASYTDSYYKGQTALHIAIERRNMALVTLLVENGADVQAAANGDFFKKTKGRPGFYFGELPLSLAACTNQLAIVKFLLQNSWQPADISARDSVGNTVLHALVEVADNTADNTKFVTNMYNEILILGAKLHPTLKLEELTNKKGLTPLALAASSGKIGVLAYILQREIHEPECRHLSRKFTEWAYGPVHSSLYDLSCIDTCEKNSVLEVIAYSSSETPNRHDMLLVEPLNRLLQDKWDRFVKRIFYFNFFVYCLYMIIFTTAAYYRPVEGLPPYKLNNTVGDYFRVTGEILSVSGGVYFFFRGIQYFLQRRPSLKSLFVDSYSEILFFVQSLFMLVSVVLYFSHRKEYVASMVFSLAMGWTNMLYYTRGFQQMGIYAVMIEKMILRDLCRFMFVYLVFLFGFSTAVVTLIEDGKNNSLPVESPPHKCRGSACRPGNSYNSLYSTCLELFKFTIGMGDLEFTENYDFKAVFIILLLAYVILTYILLLNMLIALMGETVNKIAQESKNIWKLQRAITILDTEKSFLKCMRKAFRSGKLLQVGFTPDGKDDFRWCFRVDEVNWTTWNTNVGIINEDPGNCEGVKRTLSFSLRSGRVSGRNWKNFALVPLLRDASTRDRHSTQPEEVQLKHYTGSLKPEDAEVFKDSMAPGEK
notes: whole, on cells

Assays:
TRPV1-CFP [1] = assay: FRET with TIRF microscopy, COS-7 cells, wild-type Tmem100 co-expressed
TRPV1-CFP [2] = assay: FRET with TIRF microscopy, COS-7 cells, Tmem100-3Q co-expressed
TRPA1 = tested on: T1, TRPA1; assay: Calcium imaging of HEK293T cells expressing TRPA1 and TRPV1 (MO or CA); assay type: cell-based; conditions: shortened CPP 2 μM; CA 10 μM; HEK293 TRPA1+TRPV1; vs scrambled
T1 construct: percentage of cells responsive to CA; other: shortened CPP 2 μM; CA 10 μM; HEK293 TRPA1+TRPV1; vs scrambled; percentage of cells responsive to MO; other: peptide 200 nM pre-treatment; 500 nM MO; HEK293T TRPA1+TRPV1; percentage of cells that respond to 100 nM MO and 10 μM CA; other: HEK293T TRPA1+TRPV1, Tmem100-3Q-transfected vs lacki; reduction in the percentage of cells responding to MO

[3] = tested on: SNL-induced mechanical hyperalgesia in wild-type mice; assay: Spinal nerve ligation (SNL) in wild-type mice, mechanical hyperalgesia; assay type: in vivo, mouse; conditions: day 6 post ligation, 4 hrs post CPP; 5 μl of 2 mM intradermal in hindpaws
Experimental: In the wild-type mice with spinal nerve ligation (SNL), mechanical hyperalgesia is observed 6 days post ligation. Palmitoylated (Pal) CPP tailored to the C-terminus of human Tmem100-3Q alleviates neuropathic pain/mechanical allodynia in SNL. n=6, *p<0.05 at Day 6 4 hrs post CPP treatment. Scrambled: open bar; human P2-Mut (T100-Mut): black bar (FIG. 17). Peptides (5 μl of 2 mM) were injected intradermally in the hindpaws. Sequences for CPP used in the SNL experiment:
Human P2-Mut (T100-Mut) Pal-[…]-OH (SEQ ID NO: 7); Scrambled Pal-[…]-OH (SEQ ID NO: 19). Pal-palmitoylated in the N termini for each CPP.

[4] = tested on: paclitaxel (Taxol)-induced mechanical hyperalgesia in wild-type mice; assay: Paclitaxel-induced mechanical hyperalgesia; assay type: in vivo, mouse; conditions: F2 5 μl 100 μM intradermal injection
Experimental: Mice were placed in a transparent plastic box (4.5×5×10 cm) on a metal mesh and acclimatized for 30 minutes prior to testing. Each mouse was tested more than 5 times at a specific force manually, and the threshold was determined by the lowest force needed to elicit responses more than 50% of the time.
Mice were injected with paclitaxel (Sigma T7191) intraperitoneally at the dose of 6 mg/kg, as previously described (Materazzi et al., 2012). Seven days after paclitaxel injection, the mice were assayed with Von Frey methods for mechanical hyperalgesia, both before and four hours after injection of cell permeable peptides.

[5] = molecular target: T2, TRPA1 (endogenous, mouse DRG) (mouse, UniProt Q8BLA8 1-1125); assay: co-IP with Tmem100 and TRPV1 antibodies, Western blot, mouse DRG lysates
T2 construct: whole, on cells
T2 sequence (Q8BLA8 whole entry): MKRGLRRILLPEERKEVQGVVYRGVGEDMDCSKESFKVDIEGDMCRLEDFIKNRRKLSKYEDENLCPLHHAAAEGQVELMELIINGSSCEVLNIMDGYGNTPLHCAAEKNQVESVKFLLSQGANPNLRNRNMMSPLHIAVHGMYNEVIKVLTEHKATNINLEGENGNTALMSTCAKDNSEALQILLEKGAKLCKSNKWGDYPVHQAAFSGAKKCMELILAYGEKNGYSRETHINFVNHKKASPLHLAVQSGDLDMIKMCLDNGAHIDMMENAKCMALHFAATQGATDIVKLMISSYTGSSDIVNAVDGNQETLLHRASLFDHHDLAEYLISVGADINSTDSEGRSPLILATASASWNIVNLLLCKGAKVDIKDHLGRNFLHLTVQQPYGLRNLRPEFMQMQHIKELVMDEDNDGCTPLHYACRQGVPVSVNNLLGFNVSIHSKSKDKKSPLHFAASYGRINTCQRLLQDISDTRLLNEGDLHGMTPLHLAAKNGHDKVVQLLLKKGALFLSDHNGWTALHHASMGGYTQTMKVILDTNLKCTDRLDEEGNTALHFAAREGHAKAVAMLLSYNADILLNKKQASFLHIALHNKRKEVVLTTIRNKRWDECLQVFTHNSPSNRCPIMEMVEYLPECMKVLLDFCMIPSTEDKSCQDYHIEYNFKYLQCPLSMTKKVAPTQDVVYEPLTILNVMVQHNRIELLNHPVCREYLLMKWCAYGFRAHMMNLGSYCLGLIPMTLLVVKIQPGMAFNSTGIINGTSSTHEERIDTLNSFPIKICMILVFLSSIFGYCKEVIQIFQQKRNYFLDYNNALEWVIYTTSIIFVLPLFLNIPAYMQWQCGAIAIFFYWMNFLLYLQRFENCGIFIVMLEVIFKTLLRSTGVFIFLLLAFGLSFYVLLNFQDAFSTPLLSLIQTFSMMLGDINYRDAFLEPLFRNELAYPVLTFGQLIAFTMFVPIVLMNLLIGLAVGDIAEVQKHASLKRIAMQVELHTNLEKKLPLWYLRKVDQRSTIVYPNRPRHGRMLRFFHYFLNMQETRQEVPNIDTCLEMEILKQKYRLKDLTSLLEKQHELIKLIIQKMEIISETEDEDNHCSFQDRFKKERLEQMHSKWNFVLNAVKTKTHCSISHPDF
Text: (§1) All groups were transfected with TRPV1-CFP and TRPA1-YFP except for the Rho-pYC (as a positive control for maximal effects of the system) and M-V1 (negative control) groups, where Rho-pYC and membrane-tethered YFP+TRPV1-CFP, respectively, were transfected instead. FRET efficiencies were highest in Tmem100-3Q-transfected cells (A1-V1-3Q), followed by the empty vector-transfected groups (A1-V1), and were lowest in cells transfected with wild-type Tmem100 (A1-V1-WT). The statistic is one-way ANOVA (*$p<0.05$; $p<0.01$, *$p<0.001$). Data are presented as mean±SEM. FIG. 5F is a table showing a summary of the data from FIG. 5E.
(§2) DRG from all levels or CHO cells transfected with Trpv1, Trpa1, and Tmem100-myc were used. Whole cell DRG or CHO cells lysates were generated 24 h after transfection, and Co-IP with either 1 µg myc antibody (EMD Millipore) or 1 µg TRPV1 antibody (Santa Cruz, R130) as described (Akopian et al., 2007) Immunoprecipitants and cell lysate aliquots were resolved by SDS-PAGE and immunoblotted with 1:1000 anti-TRPV1 antibody (Santa Cruz, R130), 1:500 anti-Tmem100 antibody, 1:1000 anti-TRPA1 (Novus), or 1:1000 anti-myc (EMD Millipore). Secondary antibodies for visualization included donkey anti-rabbit and anti-mouse HRP-conjugated antibodies (GE Biosciences). […]

[6] = molecular target: T2, TRPA1 (endogenous, mouse DRG); assay: co-immunoprecipitation from mouse DRG lysates
Text: as §1, §2

[7] = molecular target: B1; assay: co-immunoprecipitation from mouse DRG lysates
Text: as §1, §2

decrease of FRET efficiency against cells expressing only TRPA1-V1 (TRPV1-CFP [1]): 34% | increase of the TRPA1-TRPV1 interaction (FRET efficiency) against cells expressing only TRPA1-V1 (TRPV1-CFP [2]): 43%
Molecule: TRPA1-YFP (receptor)

Molecule: F2: shortened CPP consisting of the first 18 amino acids of the T100-Mut (SEQ ID NO: 17) (WKVRQRNKKVQQQESQTA; listed as Mus musculus)
percentage of cells responsive to CA (TRPA1): significantly reduced; also recorded: same inhibitory effects | SNL-induced mechanical hyperalgesia / allodynia in mice [3]: blocked | paclitaxel-induced mechanical hyperalgesia [4]: effective

Molecule: B1
binding result [5]: binds

binding result [6]: binds | binding result [7]: binds
B2: Tmem100 (wild-type, full-length, mouse) (other)
chain: MTEESTKENLGAPKSPTPVTMEKNPKREVVVTTGPLVSEVQLMAATGGAELSCYRCIIPFAVVVFITGIVVTAVAYSFNSHGSIISIFGLVLLSSGLFLLASSALCWKVRQRNKKVKRRESQTALVVNQRCLFA
notes: also called Pirt2; T100
